Reference: paper PMC4251045

How the values were obtained:
[1] = target: Rim1-C-terminal 6xHis (yeast); assay: cross-linking; SDA (NHS-diazirine) 50 uM, 3 uM Rim1 tetramer, 25 mM HEPES, 100 mM NaCl, 10% glycerol, pH 7.5, NHS step 25 °C 30 min, then UV 365 nm; SDS-PAGE; bands analysed by nanoLC-LTQ-Orbitrap MS (XLPM)
[2] = target: Rim1-C-terminal 6xHis (yeast); assay: cross-linking; DSS 2.5 mM, 3 uM Rim1 tetramer, 25 mM HEPES, 100 mM NaCl, 10% glycerol, pH 7.5, room temperature 40 min; products resolved on 5-15% SDS-PAGE; bands digested and analysed by nanoLC-LTQ-Orbitrap MS (XLPM, StavroX)

Rim1-C-terminal 6xHis (natural protein) gave a stoichiometry N [1] of 4 and a stoichiometry N [2] of 4.
